Legend:
[1] = target: Fluorogenic Homopolymer (DP=20) of NorGly-E(EDANS)…(dabcyl)GSGSG-NH2; assay: cell-based or functional assay
[2] = target: NorGly-E(EDANS)…(dabcyl)GSGSG-NH2; assay: cell-based or functional assay
[3] = system: T1, Thrombin Homopolymer (10 mer)
T1 sequence: GALVPRGSGERDG

[4] = system: T2, Thrombin Homopolymer (20 mer)
T2 sequence: GALVPRGSGERDG

[5] = system: T3, Thrombin Homopolymer (30 mer)
T3 sequence: GALVPRGSGERDG

[6] = system: T4, thrombin substrate monomer (norbornene-GALVPRGSGERDG-NH2)
T4 sequence: GALVPRGSGERDG

Homopolymer V0 (initial velocity of proteolysis) [1] [µM/min]	Monomer V0 (initial velocity of proteolysis) [2] [µM/min]	fold faster initial rate (V0) of the monomer than of the homopolymer [2] [fold]	Substance	proteolytic cleavage by RP-HPLC [3]	proteolytic cleavage by RP-HPLC [4]	proteolytic cleavage by RP-HPLC [5]	proteolytic cleavage by RP-HPLC [6]
0.0021	0.2	17 to 95	Pronase (Roche, cat. #10165921001)	–	–	–	–
–	–	–	thrombin (Sigma, cat. #T6884-100UN)	homopolymers at several degrees of polymerization were resistant to cleavage relative to the monomer, albeit not completely shut off from proteolysis	homopolymers at several degrees of polymerization were resistant to cleavage relative to the monomer, albeit not completely shut off from proteolysis	homopolymers at several degrees of polymerization were resistant to cleavage relative to the monomer, albeit not completely shut off from proteolysis	the monomeric peptide was readily degraded by thrombin

From patent US20210283054A1
